Data as given in US20120020961A1 (INSTITUT NATIONAL DE LA SANTE ET DE LA RECHERCHE MEDICALE …, published 2012).
Several values for one entry are separate records, joined by “and”; a condition that tells them apart may be missing. Equal values may be shown once.

T1: mature human progastrin (human, UniProt P01350 22-101)
T1 construct: In the spheroid assays the progastrin is made by the human liver cancer cells themselves; also called hPG; PG
T1 sequence: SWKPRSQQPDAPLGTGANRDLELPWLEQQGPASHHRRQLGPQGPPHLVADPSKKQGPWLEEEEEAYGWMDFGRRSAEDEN


Molecular target: T1, mature human progastrin
Assay: measured KD; method not named at the table (Example 4 describes Proteon SPR, antibody captured by anti-mouse IgG, hPG injected)

Binder | Kd
murine anti-hPG MAb13 (antibody, V domains shown, Murine C-terminal anti-hPG monoclonal antibody, immunogen C1; also called hybridoma 2C6C3C7) VH: EVQLVESGGGLVQPGGSLKLSCAASGFIFSSYGMSWVRQSPDRRLELVASINTFGDRTYYPDSVKGRFTISRDNAKNTLYLQMTSLKSEDTAIYYCARGTGTYWGQGTTLTVSS VL: not shown | 600 pM and 612 pM
murine anti-hPG MAb19 (antibody, V domains shown, Murine N-terminal anti-hPG monoclonal antibody, immunogen N2; also called hybridoma 1B3B4F11) VH: DVQLQESGPGLVKPSQSLSLTCTVTGYSITSDYAWNWIRQFPGNKLEWMGYISFSGYTSYNPSLKSRISVTRDTSRNQFFLQLTSVTTEDTATYYCAREVNYGDSYHFDYWGQGTIVTVSS VL: QLALTQSSSASFSLGASAKLTCTLSSQHRTYTIEWYQQQSLKPPKYVMEVKKDGSHSTGHGIPDRFSGSSSGADRYLSISNIQPEDEAIYICGVGDAIKGQSVFVFGGGTKVTVL | 700 pM and 779 pM
murine anti-hPG MAb8 (antibody, V domains shown, Murine C-terminal anti-hPG monoclonal antibody, immunogen C1; also called hybridoma 1C10D3B9) VH: EVQLVESGGGLVKPGGSLKLSCAASGFTFTTYAMSWVRQTPEKRLEWVATISSGGTYTYYPDSVKGRFTISRDNAKNALYLQMSSLRSEDTAMYYCATQGNYSLDFWGQGTSLTVSS VL: DIVMTQAASSNPVTLGTSASISCRSSKSLRHTKGITFLYWYLQKPGQSPQLLIYQMSNLASGVPDRFSSSGSGTDFTLRISRVEAEDLGVYYCAQNLELPLTFGAGTKLELK | 100 pM and 108 pM
murine anti-hPG MAb3 (antibody, V domains shown, Murine N-terminal anti-hPG monoclonal antibody, immunogen N2; also called hybridoma 6B5B11C10) VH: EVQLQQSGTVLARPGASVKMSCKASGYIFTSYWVHWVKQRPGQGLEWIGGFYPGNSDSRYNQKFKGKATLTAVTSASTAYMDLSSLTNEDSAVYFCTRRDSPQYWGQGTTLTVSS VL: DVLMTQTPLSLPVSLGDQASISCRSSQSIVHSNGNTYLEWYLQKPGQSPKLLIYKVSNRFSGVPDRFSGSGSGTDFTLKISRLEAEDLGVYYCFQGSHVPFTFGGGTKLEIK | 6400 pM
murine anti-hPG MAb16 (antibody, V domains shown, Murine N-terminal anti-hPG monoclonal antibody, immunogen N2; also called hybridoma 1E9D9B6) VH: QVQLQQSGAELVKPGASVKLSCKASGYTFTSYYMYWVKQRPGQGLEWIGEINPSNGGTNFNEKFKSKATLTVDKSSSTAYMQLSSLTSEDSAVYYCTRGGYYPFDYWGQGTTLTVSS VL: not shown | 200 pM and 278 pM
murine anti-hPG MAb4 (antibody, V domains shown, Murine N-terminal anti-hPG monoclonal antibody, immunogen N2; also called hybridoma 20D2C3G2) VH: QVQLQQSGAELMKPGASVKISCKATGYTFSSSWIEWLKQRPGHGLEWIGEFLPGSGSTDYNEKFKGKATFTADTSSDTAYMLLSSLTSEDSAVYYCATDGNYDWFAYWGQGTLVTVSA VL: DLVMTQTPLSLPVSLGDQASISCRSSQSLVHSSGVTYLHWYLQKPGQSPKLLIYKVSNRFSGVPDRFSGSGSGTDFTLKISRVEAEDLGVYFCSQSTHVPPTFGSGTKLEIK | 3500 pM
